Experiment [1] addresses T1, mIL2-his (mouse, UniProt P04351 21-169).
T1 construct: also called wild-type mouse IL-2 (with a his-tag); not shown: his-tag
T1 sequence (looked up): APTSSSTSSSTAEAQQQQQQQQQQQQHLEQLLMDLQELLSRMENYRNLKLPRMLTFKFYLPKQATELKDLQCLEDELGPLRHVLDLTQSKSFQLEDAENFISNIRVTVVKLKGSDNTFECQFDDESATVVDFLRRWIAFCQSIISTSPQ
The experiment in a line: BLI ForteBio, Ab on Protein A sensor. (In BLI a coated tip is dipped into the sample, and binding shifts an interference pattern.)

Experiment [2] has as its target T2, hIL2-DM-his (human, UniProt P60568 21-153).
T2 construct: expressed in ExpiCHO-S cells, nickel-column purified; also called hIL-2 mutein containing two point mutations K64G and N90R (with a his-tag); not shown: his-tag
The experiment in a line: BLI ForteBio, Ab on Protein A sensor.

The target in a further experiment is T3, hIL2-TM-his (human, UniProt P60568 21-153).
T3 construct: also called hIL-2 mutein containing three point mutations K64G, N90R and M104E (with a his-tag); not shown: his-tag
T3 chain: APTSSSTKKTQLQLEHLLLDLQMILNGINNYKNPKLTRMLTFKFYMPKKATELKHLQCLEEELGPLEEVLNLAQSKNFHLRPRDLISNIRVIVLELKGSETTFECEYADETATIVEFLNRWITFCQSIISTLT
The experiment in a line: BLI ForteBio, Ab on Protein A sensor.

For experiment [3], the target named is T2, hIL2-DM-his. In words: BLI ForteBio, Ab on Protein A sensor. The source holds these as a separate data set.
Target sequence in this assay (P60568 21-153 K84G/N110R): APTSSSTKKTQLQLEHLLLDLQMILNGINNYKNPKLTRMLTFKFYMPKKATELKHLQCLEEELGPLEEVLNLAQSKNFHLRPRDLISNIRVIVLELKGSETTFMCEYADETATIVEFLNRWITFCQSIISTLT
The target in experiment [4] is T1, mIL2-his. The experiment in a line: ELISA, antibody captured by anti-human IgG, mIL2-his titrated. (In general: An ELISA detects its analyte on a solid surface through an enzyme-linked reagent.)
For a further experiment, the target named is T4, hIL2-his (human, UniProt P60568 21-153).
T4 construct: the construct is not described further; not shown: his-tag
In words: ELISA (section 2.1.1): antibody (13.3 nM) captured on coated goat anti-human IgG, hIL2-his titrated (the x axis is the antigen concentration), HRP anti-6xHis.

The Kd is the constant that tells how readily two partners part at equilibrium. Low readings indicate tighter binding, high ones weaker binding. One may read the koff as the rate constant with which the complex falls apart. The low end stands for slow dissociation, the high end for fast dissociation. A word on the kon: it is the rate constant with which the complex forms. A higher kon goes with fast association. In general, EC50 refers to the midpoint of the concentration-response curve.

Where two headings read alike, the source gives them in different places.

B1: hS4B6-H6K3 (antibody, V domains shown)
VH: QVQLVQSGAEVKKPGATVKISCKVSGDTITAYYLHWVRQAPGQGLEWIGRIDPEDDSTKYAENFKNRVTITADTSTNTAYMELSSLRSEDTAVYYCTTVTFYYSRELRWFAYWGQGTLVTVSS
VL: DIVLTQSPATLSLSPGERATLSCQASQDIGNYLSWYQQKPGQAPRLLIYSATSLADGIPARFSGSRSGTDYTLTISSLEPEDFAVYYCLQHYSTPYTFGQGTKLEIK
notes: full antibody
In the experiment with mIL2-his [1], B1 came in with a dissociation constant (Kd) of 1 nM, a koff of 0.00018 s⁻¹ and an on-rate constant (kon) of 179000 M⁻¹ s⁻¹. Further, in the experiment with hIL2-DM-his [2], the Kd worked out at 45.3 nM, the off-rate constant (koff) is 0.01 s⁻¹ and the kon is 222000 M⁻¹ s⁻¹. In the experiment with hIL2-TM-his, this molecule registered a dissociation constant (Kd) of 24 nM, a koff of 0.00569 s⁻¹ and a kon of 237000 M⁻¹ s⁻¹. Moreover, in the experiment with hIL2-DM-his [3], the “Binding Response (nm)” value turned out to be 0.133 nm, the Kd worked out at 46.9 nM, the koff was found to be 0.0193 s⁻¹ and the kon worked out at 413000 M⁻¹ s⁻¹. In the experiment with mIL2-his [4], the EC50 came out at 0.0183 µg/mL. Also, the binding result with hIL2-his is “no binding (tested: 2 µg/mL)”.

The record behind these values is patent US20250346644A1 (LATTICON SUZHOU BIOPHARMACEUTICALS, published 2025).
